# Experimental data reported in article PMC4256133 (Proteins, 2014).
# B1: Octaprenyl pyrophosphate synthase from Escherichia coli (enzyme, E. coli)
# chain: MNLEKINELTAQDMAGVNAAILEQLNSDVQLINQLGYYIVSGGGKRIRPMIAVLAARAVGYEGNAHVTIAALIEFIHTATLLHDDVVDESDMRRGKATANAAFGNAASVLVGDFIYTRAFQMMTSLGSLKVLEVMSEAVNVIAEGEVLQLMNVNDPDITEENYMRVIYSKTARLFEAAAQCSGILAGCTPEEEKGLQDYGRYLGTAFQLIDDLLDYNADGEQLGKNVGDDLNEGKPTLPLLHAMHHGTPEQAQMIRTAIEQGNGRHLLEPVLEAMNACGSLEWTRQRAEEEADKAIAALQVLPDTPWREALIGLAHIAVQRDR
# Target: the molecule itself
# Experiment: crystal structure
protein,measurement,value
B1,stoichiometry N,2
